Data taken from the RNAGym collection of RNA variant scans (doi:10.1073/pnas.2313332121).

B1: TPR t1 (parent)
chain: GACCAAUCUGCCCUCAGAGCUCGAGAACAUCUUCGGAUGCAGAGGAGGCAGGCUUCGGUGGCGCGAUAGCGCCAACGUCCUCAACCUCCAAUGCAUCCCACCACAUGAUGAUGCCUGAAGAGCCUUGGUUUUUUG

Variants of: B1
Test: polymerase ribozyme fitness, log enrichment relative to wild type (log ratio); higher = more active; in vitro selection for triplet polymerase activity
How it was run: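 Both subunits of a heterodimeric triplet polymerase ribozyme were given their own mutant library, built by PCR and transcribed. Each library was annealed with a biotinylated primer, the partner subunit and triplets, incubated frozen at −7 °C, and its extended constructs gel-excised, captured on streptavidin beads and amplified by RT-PCR, all in one round done in triplicate. Fitness is the logarithm of genotype enrichment relative to wild-type enrichment, with replicates averaged by inverse-variance weighting. That logarithm is base 2, and Illumina-sequenced genotypes needed ≥10 input reads and ≥1 read per output.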

Compared with GACCAAUCUGCCCUCAGAGCUCGAGAACAUCUUCGGUUGCAGAGGAGGCAGGCUUCAGUGGCGCGCUAGCGCCAACGUCCUCAACCUCCAAUGCAUCCCACCACAUGAUGAUGCCUGAAGAGCCUUGGUUUUUUG [A37U G57A A66C], GACCAAUCUGCCCUCAGAGCUCGAGAACAUCUUCGGAAGCUGAUGAGGCAGGCUUCGGUGGCGCGAUAGCGCCAACGUCCUCAACCUCCAAUGCAUCCCACCACAUGAUGAUACCUGAAGAGCCUUGGUUUUUUG [U38A A41U G44U G113A] is lower in “polymerase ribozyme fitness (log ratio)” value: -4.07 for the first, -5.6 for the second.

First: GACCAAUCUGCCCUCAGAGCUCGAGAACAUCUUCGGAAUCAGAGGAGGCAGGCUUCGGUGUCGCGAUAGCGCCAACGUCCUCAACCUCUAAUGCAUCCCACCACAUGAUGCUGCCUGAAGAGCCUUGGUUUUUUG [U38A G39U G61U C89U A111C]
Second: GACCAAUCUGCCCUCAGAGCUCGAGAACAUCUUCGGUUGCAGAGGAGGCAGGCUUCGGUGGCGCGAUAGCGCCAACGUCCACAACCUCCAAUGCAUCCCAACACAUGAUUAUGCCUGAAGAGCCUUGGUUUUUUG [A37U U81A C101A G110U]
The “polymerase ribozyme fitness (log ratio)” value of the first is higher: -3.54 for the first, -5.35 for the second.

Compared with GACCAAUCUGCCCUCAGAGCUCGAGAACAUCUUCGGUUGCAGAGGAGGCAGGCUUCGGUGGCGCGAUAGCGCCAACGUCCUCAACCUCCAAUGCAUCCCACCACAUGAUGAAGCCUGAAGAGCCCUGGUUUUUUG [A37U U112A U125C], GACCAAUCUGCCCUCAGAGCUCGAGAACAUCUUCGGUUGCAGAGGAGGCAGGCUUCGGUGCCGCGAUAGCGCCAACGUCCUCAACCUCCAAUGCAUCCCACCACAUGAUGAUGCCUGAAGAGCCUUGGUUUUUUG [A37U G61C] is lower in “polymerase ribozyme fitness (log ratio)” value: 1.04 for the first, -1.86 for the second.

Compared with GACCAAUCUGCCCUCAGAGCUCGAGAACAUCUUCGGUUGCAGAGGAGGCAGGCUUCGGUGUCGCGAUAGCGCCAACGUCCUCAACCUCCAAUGCAUCCCACCACAUGAUGAUGCCUGAAGAGCCUUGGUUUUUUG [A37U G61U], GACCAAUCUGCCCUCAGAGCUCGAGAACAUCUUCGGUUGCAGAGGAGGCAGGCUUCGGGGGCGCGAUAGCGCCAACGUCCUCAACCUCCAAUGCAUCCCACCACAUGAUGAUGCCUGAAGAGCGUUGGUUUUUUG [A37U U59G C124G] is higher in “polymerase ribozyme fitness (log ratio)” value: -0.28 for the first, 1.68 for the second.

Compared with GACCAAUCUGCCCUCAGAGCUCGAGAACAUCUUCGGAAGCCGAGGAGGCAGGCUUCGGUGGCGCGAUAGCGUCAACGUCCUCAACCUCCAAUGCAUCCCACCACAUGAUGAUGCCUGAAGAGCCUUUGUUUUUUG [U38A A41C C72U G127U], GACCAAUCUGCCCUCAGAGCUCGAGAACAUCUUCGGUUGCAGAGGAGGCAGGCUUCAGUGGCGCGAUAGCGCCAACGUCCUCAACCUCGAAUGCAUCCCACCACAUGAUGAUGCCUGAAGAGCCUUGGUUUUUUG [A37U G57A C89G] is higher in “polymerase ribozyme fitness (log ratio)” value: -4.53 for the first, -3.91 for the second.

Compared with GACCAAUCUGCCCUCAGAGCUCGAGAACAUCUUCGGUUGCAGAGGAGGCAGGCUUCGAUGGCGCGAUAGCGCCAACGUCCUCAACCUCCAAUGCAUCCCCCCACAUGAUGAUGUCUGAAGAGCCUUGGUUUUGUG [A37U G58A A100C C114U U133G], GACCAAUCUGCCCUCAGAGCUCGAGAACAUCUUCGGUUGCAGAGGAGGCAGGCUUCGGUGGCCCGAUAGCGCCAACGUCCUCAACCUCCAAUGCCUCCCACCACAUGAUGAUGCCUGAAGAGCCUUGGUUUUUUG [A37U G63C A95C] is higher in “polymerase ribozyme fitness (log ratio)” value: -4.99 for the first, -1.93 for the second.

Going from GACCAAUCUGCCCUCAGAGCUCGAGAACAUCUUCGGAAGCAAAGGAGGCAGGCUUCGGUGGCGCGAUAGCGCCAACGUCCUCAACCUCCAAUGCAUCCCACCACAUGAUGAUGCCUGAAGAGCCUUGGUUUUUUG [U38A G42A] to GACCAAUCUGCCCUCAGAGCUCGAGAACAUCUUCGGUUGCAGAGGAGGCAGGCUUCGGUGGCGCGAUAGCGCCAACGUCCUCAACCUCCAAUUCAUCCCACCACAUGAUGAUGCCUGAAGAGCCUUGGUUUUUUG [A37U G93U], the “polymerase ribozyme fitness (log ratio)” value rises from -2.86 to -1.86.

Compared with GACCAAUCUGCCCUCAGAGCUCGAGAACAUCUUCGGAAGCAGAGGAGGCAGGCUUCGGUGGCGCGAUAGCGCCAACGUCCUCAACCUCCAAUGCAUCCCAACACAUGAUGAUGCCUGAUGUUCCUUGGUUUUUUG [U38A C101A A119U A121U G122U], GACCAAUCUGCCCUCAGAGCUCGAGAACAUCUUCGGUUGCAGAGGAGGCAGGCUUCGGUGGCGCGAUACCGCCAACGUCCUCAACCUCUAAUGCAUCCCACCACAUGAUGAUGCCUGAAGAGCCUUGGUUUUUUG [A37U G69C C89U] is higher in “polymerase ribozyme fitness (log ratio)” value: -2.88 for the first, -2.29 for the second.

Going from GACCAAUCUGCCCUCAGAGCUCGAGAACAUCUUCGGUUGCAGAGGAGGCAGGCUUCGGUGGCGCGAUAGCGCCAACGUCCUCAACCUCCAAUGCAUCCCACCACAUGAUGAUGCCUGAAGAGCCUUGGUUCUUUG [A37U U131C] to GACCAAUCUGCCCUCAGAGCUCGAGAACAUCUUCGGUUGCAGAGGAGGCAGGCUUCGGUGGCCCGAUAGCGCCAACGUCCUCAACCUCCAAUGCAUCCCACCAUAUGAUGAUGCCCGAAGAGCCUUGGUUUUUUG [A37U G63C C104U U116C], the “polymerase ribozyme fitness (log ratio)” value falls from -0.648 to -1.47.

Going from GACCAAUCUGCCCUCAGAGCUCGAGAACAUCUUCGGUUGCAGAGGAGGCAGGCUUCGGUGGCGCGAUACCGCCAACGUCCUCAACCUCCAAUGCAUCCCACCACAUGAUGAUGCCUGAAGAGCCUUGGUUUUUUG [A37U G69C] to GACCAAUCUGCCCUCAGAGCUCGAGAACAUCUUCGGUUGCAGAGGAGGCAGGCUUCGGUGGCGCGAUAGCGCCAACGUCCUCAACCUCCAAUGCAUCCCACCACAUGAUGAUGCCUGAAGAGCCAUGGUUUUUUG [A37U U125A], the “polymerase ribozyme fitness (log ratio)” value rises from -1.75 to -1.35.

With GACCAAUCUGCCCUCAGAGCUCGAGAACAUCUUCGGUUGCAGAGGAGGCAGGCUUCGGUGGCCCGAUUGCGCCAACGACCUCAACCUCCAAUGCAUCCCACCACAAGAUGAUGCCUGAAGAGCCUUGGUUUUUUG [A37U G63C A68U U78A U106A] the “polymerase ribozyme fitness (log ratio)” value was -5.67.
